Assays:
[1] = target: T1, full-length human SIRPγ (NP_061026.2) on cells (human, UniProt Q9P1W8 29-387); assay: flow cytometry, primary human CD3+ T cells
T1 construct: on CHO and Expi-CHO cells; endogenous on primary human CD3+ T cells; also called γ WT
How it was run: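 PBMCs blocked with donkey IgG were incubated on ice for 60 min with increasing antibody concentrations, then detected with AF647 donkey F(ab′)₂ anti-human IgG. After fixation, median fluorescence intensity of the gated CD3+ population served as the binding measure.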

[2] = target: T2, full-length human SIRPβ1 (NP_006056.2) on cells (human, UniProt O00241 30-398); assay: flow cytometry, U937 SIRPα KO cells
T2 construct: on U937 SIRPα KO cells and Expi-CHO cells; also called β1 WT
Description: Antibody binding to cells expressing full-length human SIRPβ1 (NP_006056.2) and SIRPβL (NP_001129316.1) is evaluated by flow cytometry. SIRPβ1- or SIRPβL-expressing U937^{SIRPα KO} cells are blocked with donkey IgG and incubated on ice with increasing concentrations of antibodies for 60 minutes, washed and stained with AF647-conjugated donkey F(ab′)₂ anti-human IgG secondary reagent. Cells are washed, fixed, and analyzed by flow cytometry. Median fluorescent intensity is determined and used as a measure of antibody binding.

[3] = target: T3, human SIRPαV2 extracellular domain + His-tag (CAA71403.1) (human, UniProt P78324 31-373); assay: SPR, Ab captured, ECD-His analyte
T3 construct: also called hSIRPαV2; HuSIRPαV2
How it was run: (§1)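 SPR; Ab capture surface, ethanolamine-deactivated (1M, 420 s, 10 μl/min). Analyte: SIRP ECD+His, 2-fold dilution series in 1×HBS-EP+. Inject 300 s @ 30 μl/min; dissoc. 600 s.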

[4] = target: T4, human SIRPβ1 extracellular domain + His-tag (NP_006056.2) (human, UniProt O00241 30-371); assay: SPR, Ab captured, ECD-His analyte
T4 construct: also called hSIRPβ1; HuSIRPβ1
How it was run: as §1

[5] = target: T5, human SIRPγ extracellular domain + His-tag (NP_061026.2) (human, UniProt Q9P1W8 29-360); assay: SPR, Ab captured, ECD-His analyte
T5 construct: also called hSIRPγ; HuSIRPγ
How it was run: as §1

[6] = target: T6, human SIRPαV1 extracellular domain + His-tag (NP_542970.1) (human, UniProt P78324 31-373); assay: SPR, Ab captured, ECD-His analyte
T6 construct: also called hSIRPαV1; HuSIRPαV1
How it was run: as §1

[7] = target: T7, human SIRPβL/SIRPβ1v3 extracellular domain + His-tag (NP_001129316.1) (human, UniProt Q5TFQ8 30-371); assay: SPR, Ab captured, ECD-His analyte
T7 construct: also called hSIRPβ1v3; HuSIRPβ1v3
How it was run: as §1

T3 sequence (P78324 other isoform, or with tags, fused parts or gaps): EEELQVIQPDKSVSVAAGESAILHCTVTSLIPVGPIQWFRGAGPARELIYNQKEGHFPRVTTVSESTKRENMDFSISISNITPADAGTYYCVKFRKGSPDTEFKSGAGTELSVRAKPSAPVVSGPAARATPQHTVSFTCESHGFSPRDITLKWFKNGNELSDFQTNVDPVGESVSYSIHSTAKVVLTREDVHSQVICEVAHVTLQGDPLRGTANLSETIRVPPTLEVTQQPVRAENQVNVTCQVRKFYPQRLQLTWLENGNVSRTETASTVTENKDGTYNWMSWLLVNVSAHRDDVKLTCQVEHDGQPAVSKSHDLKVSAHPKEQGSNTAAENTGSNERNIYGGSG
T1 sequence (Q9P1W8 29-387): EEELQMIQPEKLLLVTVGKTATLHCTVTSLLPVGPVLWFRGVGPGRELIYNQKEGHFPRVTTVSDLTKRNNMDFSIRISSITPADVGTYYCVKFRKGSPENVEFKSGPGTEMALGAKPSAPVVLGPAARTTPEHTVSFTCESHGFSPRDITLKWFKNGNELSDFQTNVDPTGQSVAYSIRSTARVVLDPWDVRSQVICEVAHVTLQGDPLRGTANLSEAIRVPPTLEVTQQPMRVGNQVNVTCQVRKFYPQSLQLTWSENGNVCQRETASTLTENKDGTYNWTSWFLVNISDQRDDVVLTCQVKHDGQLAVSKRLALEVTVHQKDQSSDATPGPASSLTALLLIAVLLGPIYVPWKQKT
T4 sequence (O00241 other isoform, or with tags, fused parts or gaps): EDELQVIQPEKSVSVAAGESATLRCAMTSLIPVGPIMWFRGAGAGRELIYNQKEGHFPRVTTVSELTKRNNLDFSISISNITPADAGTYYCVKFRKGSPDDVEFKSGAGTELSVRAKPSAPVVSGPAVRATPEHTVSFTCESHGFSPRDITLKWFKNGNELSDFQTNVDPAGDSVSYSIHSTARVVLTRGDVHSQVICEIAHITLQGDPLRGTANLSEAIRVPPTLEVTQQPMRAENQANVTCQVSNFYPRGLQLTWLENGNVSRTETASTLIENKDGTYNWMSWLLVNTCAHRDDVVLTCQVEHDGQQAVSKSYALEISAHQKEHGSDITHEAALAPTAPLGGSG
T6 sequence (P78324 other isoform, or with tags, fused parts or gaps): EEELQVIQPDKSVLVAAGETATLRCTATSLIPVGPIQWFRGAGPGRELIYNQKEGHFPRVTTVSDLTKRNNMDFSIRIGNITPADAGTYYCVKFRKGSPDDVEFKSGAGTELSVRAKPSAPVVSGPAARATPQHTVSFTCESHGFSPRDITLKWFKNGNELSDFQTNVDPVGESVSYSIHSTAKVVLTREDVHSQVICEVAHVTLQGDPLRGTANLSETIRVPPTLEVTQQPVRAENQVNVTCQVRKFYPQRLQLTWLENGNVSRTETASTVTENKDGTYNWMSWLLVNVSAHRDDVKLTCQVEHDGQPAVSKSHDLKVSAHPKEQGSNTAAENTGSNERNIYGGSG
T7 sequence (Q5TFQ8 other isoform, or with tags, fused parts or gaps): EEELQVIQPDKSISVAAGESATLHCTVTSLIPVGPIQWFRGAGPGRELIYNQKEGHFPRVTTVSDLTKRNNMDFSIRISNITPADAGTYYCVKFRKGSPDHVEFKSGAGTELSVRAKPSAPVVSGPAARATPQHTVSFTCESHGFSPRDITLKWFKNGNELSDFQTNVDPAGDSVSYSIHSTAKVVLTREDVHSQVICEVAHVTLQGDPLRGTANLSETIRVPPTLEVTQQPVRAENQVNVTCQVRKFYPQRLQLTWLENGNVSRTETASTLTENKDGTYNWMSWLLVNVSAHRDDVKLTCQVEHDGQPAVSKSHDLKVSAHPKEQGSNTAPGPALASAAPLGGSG
T2 sequence (O00241 30-398): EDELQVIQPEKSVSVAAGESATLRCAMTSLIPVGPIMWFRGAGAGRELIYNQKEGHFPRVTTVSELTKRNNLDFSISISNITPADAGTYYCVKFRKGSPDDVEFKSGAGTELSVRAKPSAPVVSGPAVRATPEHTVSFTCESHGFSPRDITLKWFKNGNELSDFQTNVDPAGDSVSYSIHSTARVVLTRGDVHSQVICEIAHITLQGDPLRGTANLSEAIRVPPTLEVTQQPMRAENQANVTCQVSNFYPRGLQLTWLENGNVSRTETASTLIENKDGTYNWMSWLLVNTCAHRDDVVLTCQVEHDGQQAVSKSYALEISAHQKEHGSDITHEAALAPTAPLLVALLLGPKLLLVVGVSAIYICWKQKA
T5 sequence (Q9P1W8 29-360): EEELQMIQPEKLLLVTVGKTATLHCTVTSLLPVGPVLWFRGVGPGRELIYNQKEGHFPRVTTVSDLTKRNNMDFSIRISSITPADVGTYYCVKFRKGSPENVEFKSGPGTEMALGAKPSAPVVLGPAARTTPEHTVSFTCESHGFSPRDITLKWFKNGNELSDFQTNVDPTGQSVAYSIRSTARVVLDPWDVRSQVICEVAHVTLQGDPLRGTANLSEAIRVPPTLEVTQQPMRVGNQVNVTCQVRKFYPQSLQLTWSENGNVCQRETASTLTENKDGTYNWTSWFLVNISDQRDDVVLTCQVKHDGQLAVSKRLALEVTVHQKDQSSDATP

B1: Antibody E22 (antibody, human IgG1, kappa, L234A L235A, V domains shown)
VH: QVQLQESGPGLVKPSETLSLTCTVSGGSIRDYYWSWIRQPPGKGLEWIGFIYYNGRTFYQSSLKSRVTISLDTSKNQFSLKMTSVTAADTAVYYCARVRAYSGIGLDGTDVWGQGTTVTVSS
VL: DIVMTQSPLSLPVTPGEPASISCRSSQSLLYSTGYTYLDWYLQRPGQSPQLLIYGGSSRASGVPDRFSGSGSGTDFTLKISRVEAEDVGVFYCGQALQTPLTFGQGTKVEIKR
B1 was tested, and the binding result [1] was “no binding”, the binding result [2] was “no binding” and the Kd [3] was 1.47 nM. The binding result [4] was “no binding (tested: 1000 nM)”, the binding result [5] was “no binding (tested: 1000 nM)” and the Kd [6] was 1.57 nM. It also gave a Kd [7] of 3.19 nM.

Reference: patent US20230012273A1 (Boehringer Ingelheim, published 2023)
